Data on five molecules can be found in US20200222503A1 (published 2020).

To fix the notation:
B1: murine CD172a(SIRPα)-Fc-CD40L chimeric protein (Fc fusion, UniProt P97797 32-373, looked up)
chain: KELKVTQPEKSVSVAAGDSTVLNCTLTSLLPVGPIRWYRGVGPSRLLIYSFAGEYVPRIRNVSDTTKRNNMDFSIRISNVTPADAGIYYCVKFQKGSSEPDTEIQSGGGTEVYVLAKPSPPEVSGPADRGIPDQKVNFTCKSHGFSPRNITLKWFKDGQELHPLETTVNPSGKNVSYNISSTVRVVLNSMDVNSKVICEVAHITLDRSPLRGIANLSNFIRVSPTVKVTQQSPTSMNQVNLTCRAERFYPEDLQLIWLENGNVSRNDTPKNLTKNTDGTYNYTSLFLVNSSAHREDVVFTCQVKHDQQPAITRNHTVLGFAHSSDQGSMQTFPDNNATHNWNHRRLDKVEEEVNLHEDFVFIKKLKRCNKGEGSLSLLNCEEMRRQFEDLVKDITLNKEEKKENSFEMQRGDEDPQIAAHVVSEANSNAASVLQWAKKGYYTMKSNLVMLENGKQLTVKREGLYYVYTQVTFCSNREPSSQRPFIVGLWLKPSSGSERILLKAANTHSSSQLCEQQSVHLGGVFELQAGASVFVNVTEASQVIHRVGFSSFGLLKL
notes: extracellular domain; also called mCD172a(SIRPα)-Fc-CD40L; not shown: Fc linker of the murine construct is not specified
B4: murine PD-1-Fc-OX40L chimeric protein (Fc fusion, UniProt Q02242 25-169, looked up)
chain: LEVPNGPWRSLTFYPAWLTVSEGANATFTCSLSNWSEDLMLNWNRLSPSNQTEKQAAFCNGLSQPVQDARFQIIQLPNRHDFHMNILDTRRNDSGIYLCGAISLHPKAKIEESPGAELVVTERILETSTRYPSPSPKPEGRFQGMSSSPAKDPPIQRLRGAVTRCEDGQLFISSYKNEYQTMEVQNNSVVIKCDGLYIIYLKGSFFQEVKIDLHFREDHNPISIPMLNDGRRIVFTVVASLAFKDKVYLTVNAPDTLCEHLQINDGELIVVQLTPGYCAPEGSYHSTVNQVPL
notes: extracellular domain; also called mPD-1-Fc-OX40L; not shown: Fc linker of the murine construct is not specified

The target in assay [1] is T1, murine CD40 on CHOK1 cells (murine, UniProt P27512 20-289).
T1 construct: whole, on cells; also called mCD40; CHOK1/mCD40
T1 sequence (P27512 20-289): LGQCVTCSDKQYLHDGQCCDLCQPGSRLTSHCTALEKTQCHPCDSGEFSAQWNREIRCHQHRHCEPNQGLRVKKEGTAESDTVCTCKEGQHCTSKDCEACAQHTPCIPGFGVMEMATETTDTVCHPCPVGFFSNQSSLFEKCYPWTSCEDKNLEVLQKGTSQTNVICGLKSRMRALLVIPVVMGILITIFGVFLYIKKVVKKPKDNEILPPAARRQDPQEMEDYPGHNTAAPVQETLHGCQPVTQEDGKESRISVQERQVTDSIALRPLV
Kind of assay: flow cytometry on CHOK1/mCD40 cells. The source says:
Cells were collected, washed, and stained with antibodies for the detection of the chimeric protein binding by flow cytometry.

The target of assay [2] is B1. Kind of assay: SPR. (In general: SPR reads the build-up and loss of mass on a sensor chip optically.)
The target of assay [3] is B4. In words: SPR, BioRad ProteOn XPR 360, His-tagged target on chip.
Assay [4] has as its target T2, FcRn-His (Example 11) (Mus musculus (Mouse), UniProt Q61559 22-297; P01887 21-119).
T2 construct: copies: 1 + 1
T2 sequence (alpha): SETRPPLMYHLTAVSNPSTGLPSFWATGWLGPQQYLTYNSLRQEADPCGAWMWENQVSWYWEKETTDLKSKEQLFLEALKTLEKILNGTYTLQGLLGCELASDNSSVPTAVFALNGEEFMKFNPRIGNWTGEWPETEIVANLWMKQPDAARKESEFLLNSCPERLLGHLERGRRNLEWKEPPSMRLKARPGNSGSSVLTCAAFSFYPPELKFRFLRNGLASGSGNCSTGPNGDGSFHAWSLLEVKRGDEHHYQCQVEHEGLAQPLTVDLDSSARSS
T2 sequence (beta): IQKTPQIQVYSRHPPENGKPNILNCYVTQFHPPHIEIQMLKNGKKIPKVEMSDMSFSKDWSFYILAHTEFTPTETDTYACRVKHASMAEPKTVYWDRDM
The description is as above.

Assay [5] has as its target PD-L1 on CHO cells (CHO-PD-L1) (Homo sapiens (Human), UniProt Q9NZQ7 19-290). Kind of assay: FACS on CHO-PD-L1 cells.
Assay [6] concerns the target T3, OX40 on HeLa cells (HeLa-OX40) (Homo sapiens (Human), UniProt P43489 29-277).
T3 sequence: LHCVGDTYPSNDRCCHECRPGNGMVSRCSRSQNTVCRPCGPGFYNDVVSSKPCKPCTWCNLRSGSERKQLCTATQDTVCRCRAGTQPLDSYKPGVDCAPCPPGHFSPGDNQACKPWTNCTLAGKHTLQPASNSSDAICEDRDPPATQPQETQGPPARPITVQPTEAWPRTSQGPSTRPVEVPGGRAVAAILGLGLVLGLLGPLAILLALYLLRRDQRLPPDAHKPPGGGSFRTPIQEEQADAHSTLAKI
In words: FACS on HeLa-OX40 cells.

Chain of PD-L1 on CHO cells (CHO-PD-L1) (Q9NZQ7 19-290 limits assumed, form in doubt): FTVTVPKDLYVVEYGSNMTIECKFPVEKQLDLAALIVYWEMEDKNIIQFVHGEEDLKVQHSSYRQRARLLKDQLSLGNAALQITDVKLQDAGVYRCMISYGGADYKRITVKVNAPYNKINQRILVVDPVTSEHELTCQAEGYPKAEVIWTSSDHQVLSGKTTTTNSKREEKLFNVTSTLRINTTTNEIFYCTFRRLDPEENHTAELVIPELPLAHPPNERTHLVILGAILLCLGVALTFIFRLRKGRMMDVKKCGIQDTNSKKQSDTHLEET

Consider B1, for which the EC50 (as a rule, the concentration at which the effect is half-maximal) in assay [1] came to 0.0202 µM.

B2: recombinant murine CD40 protein (receptor, UniProt P27512 24-193, looked up)
chain: VTCSDKQYLHDGQCCDLCQPGSRLTSHCTALEKTQCHPCDSGEFSAQWNREIRCHQHRHCEPNQGLRVKKEGTAESDTVCTCKEGQHCTSKDCEACAQHTPCIPGFGVMEMATETTDTVCHPCPVGFFSNQSSLFEKCYPWTSCEDKNLEVLQKGTSQTNVICGLKSRMR
notes: also called mCD40
Consider B2, for which the affinity in assay [2], expressed as Kd, was 0.000756 µM.

B3: OX40-His (Example 11) (receptor, not shown: small tags and cut ends)
chain: VTARRLNCVKHTYPSGHKCCRECQPGHGMVSRCDHTRDTLCHPCETGFYNEAVNYDTCKQCTQCNHRSGSELKQNCTPTQDTVCRCRPGTQPRQDSGYKLGVDCVPCPPGHFSPGNNQACKPWTNCTLSGKQTRHPASDSLDAVCEDRSLLATLLWETQRPTFRPTTVQSTTVWPRTSELPSPPTLVTPEGP
As to B3, the equilibrium dissociation constant (Kd) (usually a measure of binding affinity in units of concentration) in assay [3] worked out at 0.00962 µM. For the molecule B4, in assay [4], the dissociation constant Kd came to 0.0556 µM; the koff (as a rule, the first-order rate constant of dissociation) turned out to be 0.00262 s⁻¹; the kon – broadly, a measure of how fast the partners come together – was determined as 47200 M⁻¹ s⁻¹.

B5: PD-1_IgG4_OX40L (1) (Fc fusion)
chain: LDSPDRPWNPPTFSPALLVVTEGDNATFTCSFSNTSESFVLNWYRMSPSNQTDKLAAFPEDRSQPGQDCRFRVTQLPNGRDFHMSVVRARRNDSGTYLCGAISLAPKAQIKESLRAELRVTERRAEVPTAHPSPSPRPAGQFQSKYGPPCPSCPAPEFLGGPSVFLFPPKPKDTLMISRTPEVTCVVVDVSQEDPEVQFNWYVDGVEVHNAKTKPREEQFNSTYRVVSVLTVLHQDWLSGKEYKCKVSSKGLPSSIEKTISNATGQPREPQVYTLPPSQEEMTKNQVSLTCLVKGFYPSDIAVEWESNGQPENNYKTTPPVLDSDGSFFLYSRLTVDKSSWQEGNVFSCSVMHEALHNHYTQKSLSLSLGKIEGRMDQVSHRYPRIQSIKVQFTEYKKEKGFILTSQKEDEIMKVQNNSVIINCDGFYLISLKGYFSQEVNISLHYQKDEEPLFQLKKVRSVNSLMVASLTYKDKVYLNVTTDNTSLDDFHVNGGELILIHQNPGEFCVL
Take B5: the EC50 turned out to be 0.027 µM in assay [5] and 0.006 µM in assay [6].
